Data published in doi:10.1101/2021.09.23.461563.

Experiments:
[1] = biological target: GST-ErpB (Borrelia burgdorferi strain B31); test: SPR
[2] = biological target: GST-ErpQ (Borrelia burgdorferi strain B31); test: SPR

Binder | Kd [1] [µM] | Kd [2] [µM]
C1s enzyme (activated form of human C1s) (enzyme) chain 1: EPTMYGEILSPNYPQAYPSEVEKSWDIEVPEGYGIHLYFTHLDIELSENCAYDSVQIISGDTEEGRLCGQRSSNNPHSPIVEEFQVPYNKLQVIFKSDFSNEERFTGFAAYYVATDINECTDFVDVPCSHFCNNFIGGYFCSCPPEYFLHDDMKNCGVNCSGDVFTALIGEIASPNYPKPYPENSRCEYQIRLEKGFQVVVTLRREDFDVEAADSAGNCLDSLVFVAGDRQFGPYCGHGFPGPLNIETKSNALDIIFQTDLTGQKKGWKLRYHGDPMPCPKEDTPNSVWEPAKAKYVFRDVVQITCLDGFEVVEGRVGATSFYSTCQSNGKWSNSKLKCQPVDCGIPESIENGKVEDPESTLFGSVIRYTCEEPYYYMENGGGGEYHCAGNGSWVNEVLGPELPKCVPVCGVPREPFEEKQR chain 2: IIGGSDADIKNFPWQVFFDNPWAGGALINEYWVLTAAHVVEGNREPTMYVGSTSVQTSRLAKSKMLTPEHVFIHPGWKLLEVPEGRTNFDNDIALVRLKDPVKMGPTVSPICLPGTSSDYNLMDGDLGLISGWGRTEKRDRAVRLKAARLPVAPLRKCKEVKVEKPTADAEAYVFTPNMICAGGEKGMDSCKGDSGGAFAVQDPNDKTKFYAAGLVSWGPQCGTYGLYTRVKNYVDWIMKTMQENSTPRED | 0.0039 | 0.0045
C1r enzyme (activated form of human C1r) (enzyme) chain 1: SIPIPQKLFGEVTSPLFPKPYPNNFETTTVITVPTGYRVKLVFQQFDLEPSEGCFYDYVKISADKKSLGRFCGQLGSPLGNPPGKKEFMSQGNKMLLTFHTDFSNEENGTIMFYKGFLAYYQAVDLDECASRSKSGEEDPQPQCQHLCHNYVGGYFCSCRPGYELQEDTHSCQAECSSELYTEASGYISSLEYPRSYPPDLRCNYSIRVERGLTLHLKFLEPFDIDDHQQVHCPYDQLQIYANGKNIGEFCGKQRPPDLDTSSNAVDLLFFTDESGDSRGWKLRYTTEIIKCPQPKTLDEFTIIQNLQPQYQFRDYFIATCKQGYQLIEGNQVLHSFTAVCQDDGTWHRAMPRCKIKDCGQPRNLPNGDFRYTTTMGVNTYKARIQYYCHEPYYKMQTRAGSRESEQGVYTCTAQGIWKNEQKGEKIPRCLPVCGKPVNPVEQRQR chain 2: IIGGQKAKMGNFPWQVFTNIHGRGGGALLGDRWILTAAHTLYPKEHEAQSNASLDVFLGHTNVEELMKLGNHPIRRVSVHPDYRQDESYNFEGDIALLELENSVTLGPNLLPICLPDNDTFYDLGLMGYVSGFGVMEEKIAHDLRFVRLPVANPQACENWLRGKNRMDVFSQNMFCAGHPSLKQDACQGDSGGVFAVRDPNTDRWVATGIVSWGIGCSRGYGFYTKVLNYVDWIKKEMEEED | 0.1 | 0.097
